This test has as its target PTPδ D2-His6 F1503A (mouse). The test is described as follows: SPR; Biacore T200, 25 °C, 10 mM Hepes-NaOH pH 7.5, 150 mM NaCl, 0.005% Tween-20; wild-type or mutant PTPδ D2-His6 amine-coupled on a CM5 chip; wild-type or mutant Liprin-α3 tSAM injected, twofold dilutions from 40 µM to 39 nM; equilibrium KD. A general note: Surface plasmon resonance follows binding to a sensor surface in real time, without labels.

As a reminder, the Kd is the concentration at which binding is half-saturated. Low readings indicate tighter binding, high ones weaker binding.

Sequence of mouse Liprin-α3 tSAM (residues 808–1114) (P60469 808-1114): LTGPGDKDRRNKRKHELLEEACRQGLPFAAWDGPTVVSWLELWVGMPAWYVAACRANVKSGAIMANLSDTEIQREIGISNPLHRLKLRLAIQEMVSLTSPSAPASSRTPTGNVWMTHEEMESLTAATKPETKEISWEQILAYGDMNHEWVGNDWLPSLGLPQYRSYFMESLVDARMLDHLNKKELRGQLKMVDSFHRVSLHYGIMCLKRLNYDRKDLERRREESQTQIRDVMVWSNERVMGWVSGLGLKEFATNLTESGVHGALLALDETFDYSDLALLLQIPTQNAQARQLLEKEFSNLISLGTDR

The substance “mouse Liprin-α3 tSAM (residues 808–1114) (from UniProt P60469 808-1114) (domain or fragment)” yielded a Kd of 8.3 µM.

The values above are taken from publication PMC6994669.
